In patent publication US20230122364A1:

How the values were obtained:
[1] = biological target: SARS-CoV S2Pecto antigen (SARS-CoV) (UniProt P59594); assay: ELISA on coated SARS-CoV S2Pecto
[2] = biological target: SRBD subdomain of SARS-CoV-2 S protein (SARS-CoV-2) (UniProt P0DTC2); assay: ELISA on coated SRBD

Work on “rCR3022 (recombinant form of the cross-reactive SARS-CoV SRBD mAb CR3022) (antibody)” yielded an EC50 [1] of 5.2 ng/mL and an EC50 [2] of 1.1 ng/mL.
